Reference: patent EP2083016A1 (U.S. Medical Research Institute of Infectious Diseases, dated 2009)

How the values were obtained:
[1] = biological target: T1, HLA-DR1 (DR1 alpha/beta; DRA and DRB1*0101) on the cell surface (human); test: flow cytometry on HLA-DR-bearing cells, FITC rabbit anti-SpeA
[2] = biological target: T1, HLA-DR1 (DR1 alpha/beta; DRA and …); test: flow cytometry; toxin on cells bearing HLA-DR1
[3] = biological target: T1, HLA-DR1 (DR1 alpha/beta; DRA and …); test: flow cytometry on human MHC class II expressing cells
[4] = biological target: T1, HLA-DR1 (DR1 alpha/beta; DRA and …); test: flow cytometry on HLA-DR-bearing cells, FITC rabbit anti-TSST-1

B1: SpeA mutant L42A (ligand)
chain: QQDPDPSQLHRSSLVKNLQNIYFLYEGDPVTHENVKSVDQLASHDLIYNVSGPNYDKLKTELKNQEMATLFKDKNVDIYGVEYYHLCYLCENAERSACIYGGVTNHEGNHLEIPKKIVVKVSIDGIQSLSFDIETNKKMVTAQELDYKVRKYLTDNKQLYTNGPSKYETGYIKFIPKNKESFWFDFFPEPEFTQSKYLMIYKDNETLDSNTSQIEVYLTTK
binding result [1]: binds

B2: staphylococcal enterotoxin D (SED) (ligand)
chain: NENIDSVKEKELHKKSELSSTALNNMKHSYADKNPIIGENKSTGDQFLENTLLYKKFFTDLINFEDLLINFNSKEMAQHFKSKNVDVYPIRYSINCYGGEIDRTACTYGGVTPHEGNKLKERKKIPINLWINGVQKEVSLDKVQTDKKNVTVQELDAQARRYLQKDLKLYNNDTLGGKIQRGKIEFDSSDGSKVSYDLFDVKGDFPEKQLRIYSDNKTLSTEHLHIDIYLYEK
binding result [2]: binds

B3: staphylococcal enterotoxin A (SEA), wild type (ligand)
chain: SEKSEEINEKDLRKKSELQGTALGNLKQIYYYNEKAKTENKESHDQFLQHTILFKGFFTDHSWYNDLLVDFDSKDIVDKYKGKKVDLYGAYYGYQCAGGTPNKTACMYGGVTLHDNNRLTEEKKVPINLWLDGKQNTVPLETVKTNKKNVTVQELDLQARRYLQEKYNLYNSDVFDGKVQRGLIVFHTSTEPSVNYDLFGAQGQYSNTLLRIYRDNKTINSENMHIDIYLYTS
binding result [3]: binds

B4: toxic shock syndrome toxin-1 (TSST-1), wild type (ligand)
chain: STNDNIKDLLDWYSSGSDTFTNSEVLDNSLGSMRIKNTDGSISLIIFPSPYYSPAFTKGEKVDLNTKRTKKSQHTSEGTYIHFQISGVTNTEKLPTPIELPLKVKVHGKDSPLKYGPKFDKKQLAISTLDFEIRHQLTQIHGLYRSSDKTGGYWKITMNDGSTYQSDLSKKFEYNTEKPPINIDEIKTIEAEIN
binding result [4]: binds
